Test results published in patent US20180201910.

B1: ferredoxin reductase encoded by FDR gene 1 (FDR1), YP_001865390, Nostoc punctiforme PCC 73102 (protein)
chain: MNSPVYQTVIVGGGFTGLFTALHLAHEHYPRSVILIDKDERFCFKPLLYEYFDGEMDTFQVVPRFSELLKGSGVIFVQDTVQSINLHQREVKLASGNSYNYSNLVLALGSVTGYHQVEGARENAFPFWTQADAIALDRHLRDCLQKAVQTEDVEQRRKLLTVVIVGGGASGVEMAATLADFLPHWYSALGGNSSEIRVVLLNHGKEILDGDINNPLREIAERELNKRAVPIEMIVEAEATAIGSTSIQYKRNEQIETLATHTTVWTAGTSTHPLIKDLPIPKEHRDRRDRPLVTPNLQLLDFPEVFVGGDCAAVQDNSLPPTAQVAYQQGANIAQNLKALALGEEPKPAKVNIRGTLLKLGINDAAANLFNVFEVVGETAHLIRQGTYLTLLPAPIHDFKATTEWVDEEVFHQHLDPHDVGKKVVQAAEIVGVGVVGILAARKLLKMLGDEDKNSK
B2: ferredoxin reductase encoded by FDR gene 3 (FDR3), YP_001868825, Nostoc punctiforme PCC 73102 (protein)
chain: MSFTSMPSLREQQHPLIRQLADCIEAAWHQHLDLSPYHLPDELGYVEGRLEGEKLTIENRCYQTPQFRKMHLELANIGNMLDILHCVMFPRPQYNLPMFGCDLVGGRGQISAAIADLSPIQLERTLPESYTTALAQLPVLNFSQPRELPEWGNIFSDFCIFVRPGSPEEEAMFLSRVREFLDIHCMQAIASHPVSVEQVTQNLAGQHNYCTKQQQNDKTRRVLEKAFGPVWAENYMTTVLFDLPT
B3: ferredoxin reductase encoded by FDR gene 2 (FDR2), YP_001866231, Nostoc punctiforme PCC 73102 (protein)
chain: MYNQGAVEGAANIELGSRIFVYEVVGLRQGEETDQTNYPIRKSGSVFIRVPYNRMNQEMRRITRLGGTIVSIQPITALEPVNGKASFGNATSVVSELAKSGETANSEGNGKATPVNAHSAEEQNKDKKGNTMTQAKAKKDHGDVPVNTYRPNAPFIGKVISNEPLVKEGGIGIVQHLKFDLSGGDLKYIEGQSIGIIPPGLDKNGKPEKLRLYSIASTRHGDDVDDKTVSLCVRQLEYKHPETGETVYGVCSTHLCFLKPGEEVKITGPVGKEMLLPNDPDANVIMMATGTGIAPMRAYLWRQFKDAERAANPEYQFKGFSWLIFGVPTTPNLLYKEELEEIQQKYPENFRLTAAISREQKNPQGGRMYIQDRVAEHADELWQLIKNEKTHTYICGLRGMEEGIDAALTAAAAKEGVTWSDYQKQLKKAGRWHVETY

Legend:
[1] = target: T1, ferredoxin encoded by FD gene 1 (Fd5), YP_001864105, Nostoc punctiforme PCC 73102
T1 chain: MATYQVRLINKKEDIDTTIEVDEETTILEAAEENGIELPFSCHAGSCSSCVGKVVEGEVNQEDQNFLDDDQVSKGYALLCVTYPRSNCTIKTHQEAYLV

[2] = target: T2, ferredoxin encoded by FD gene 2 (Fd6), YP_001864826, Nostoc punctiforme PCC 73102
T2 chain: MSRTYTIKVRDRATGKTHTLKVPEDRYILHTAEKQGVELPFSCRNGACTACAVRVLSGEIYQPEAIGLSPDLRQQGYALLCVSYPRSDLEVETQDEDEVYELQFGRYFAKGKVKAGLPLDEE

[3] = target: T3, ferredoxin encoded by FD gene 5 (Fd4), YP_001864061, Nostoc punctiforme PCC 73102
T3 chain: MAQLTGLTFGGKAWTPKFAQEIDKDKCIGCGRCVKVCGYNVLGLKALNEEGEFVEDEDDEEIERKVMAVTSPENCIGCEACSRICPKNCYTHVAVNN

[4] = target: ferredoxin encoded by FD gene 4 (Fd8), YP_001867060, Nostoc punctiforme PCC 73102
Sequence of ferredoxin encoded by FD gene 4 (Fd8), YP_001867060, Nostoc punctiforme PCC 73102 (chain, as listed by the source): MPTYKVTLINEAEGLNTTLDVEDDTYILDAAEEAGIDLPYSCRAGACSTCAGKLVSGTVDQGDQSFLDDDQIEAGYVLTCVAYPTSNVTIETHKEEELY

[5] = target: T4, ferredoxin encoded by FD gene 3 (Fd7), YP_001865513, Nostoc punctiforme PCC 73102
T4 chain: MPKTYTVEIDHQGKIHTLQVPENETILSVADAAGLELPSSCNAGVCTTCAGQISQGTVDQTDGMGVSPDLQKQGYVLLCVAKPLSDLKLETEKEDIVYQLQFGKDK

Protein	amount of alkane production 3 days after the initiation of culture compared with the amount of Strain No. 2 (E. coli Rosetta co-expressing decarbonylase and acyl-ACP reductase, GC/MS) [1]	amount of alkane production 3 days after the initiation of culture compared with the amount of Strain No. 2 (E. coli Rosetta co-expressing decarbonylase and acyl-ACP reductase, GC/MS) [2]	amount of alkane production 3 days after the initiation of culture compared with the amount of Strain No. 2 (E. coli Rosetta co-expressing decarbonylase and acyl-ACP reductase, GC/MS) [3]	amount of alkane production 3 days after the initiation of culture compared with the amount of Strain No. 2 (E. coli Rosetta co-expressing decarbonylase and acyl-ACP reductase, GC/MS) [4]	amount of alkane production 3 days after the initiation of culture compared with the amount of Strain No. 2 (E. coli Rosetta co-expressing decarbonylase and acyl-ACP reductase, GC/MS) [5]	effects of improving the alkane productivity in the E. coli JM109 strain [5]	effects of improving the alkane productivity in the Klebsiella sp. 100048 strain [5]
B1	2.5 times	2.4 times	x	2.6 times	x	–	–
B2	x	3.4 times	x	x	2.0 times	–	–
B3	1.9 times	2.5 times	x	3.0 times	3.8 times	two times greater in the E. coli JM109 strain	4 times greater than the effects in the Klebsiella sp. 100048 strain
